These results are taken from the supplement of paper PMC10126150.

± gives the standard deviation of the averaged measurements.

The subject of the data set is ATP. Kind of data set: switch fluorescence ratio, 500 uM ATP over buffer (Cy3 cluster intensity, sum of 5 cycles each) (fold (ratio)); higher = stronger signal-on switching upon ATP binding; sequences stand for … in TCGTCGGCAGCGTCAGATGTGTATAAGAGACAGTTTTTTTTTTTTTTTTTTTTTTTTT…TC. As to conditions: aptamer strand: ATP DNA aptamer (quencher-CACCTGGGGGAGTATTGCGGAGGAAGG + anchor), 100 nM annealed; ATP concentration: 500 uM. The essentials: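 Exposure to 500 uM ATP lasted 15 min at 22 °C before imaging, and a selection-buffer image was taken beforehand, for Cy3-labelled switching-strand clusters on a modified Illumina MiSeq flow-cell annealed to 100 nM quencher-labelled ATP aptamer. Five buffer/ATP cycles were run with NaOH stripping and re-annealing between them. The fluorescence ratio per cluster is summed target-cycle over summed buffer-cycle Cy3 intensity, averaged per switch-domain sequence. Clusters outside 100-1000 RFU were excluded.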

Regarding CATAGCTGTG, the switch fluorescence ratio amounted to 1.01 ± 0.026. Regarding CATAGGAGGC, the switch fluorescence ratio was determined as 1 ± 0.031. Consider CATAGGCTGG, for which the switch fluorescence ratio is 0.985 ± 0.016. Under CATAGGGACG stands 0.989 ± 0.083; under CATAGGGCCA, 1 ± 0.012; under CATAGGGGAA, 1.01 ± 0.011. For the sequence CATAGGTCAT, the switch fluorescence ratio was found to be 1.03 ± 0.058.

On to CATAGTATGT, for which the switch fluorescence ratio is 0.973 ± 0.067. Under CATAGTATTA stands 0.958 ± 0.04; under CATAGTCCTC, 0.964 ± 0.041; under CATAGTTACG, 0.994 ± 0.047. Under CATAGTTCGT stands 0.988 ± 0.016. The figure for CATATAAGTA is 0.9809 ± 0.0025; for CATATGGGGT it is 1 ± 0.038; for CATATGTCTG it is 0.994 ± 0.015. As to CATATTGGGG, the switch fluorescence ratio was determined as 0.963 ± 0.022. The figure for CATATTTAGG is 0.949 ± 0.028; for CATCAAGGTA it is 1.04 ± 0.025. The figure for CATCAGGGCT is 1.06 ± 0.051; for CATCATGTCT it is 1.01 ± 0.03; for CATCCCTCAA it is 1.86 ± 0.72. For the sequence CATCCGTCCG, the switch fluorescence ratio came to 1.353 ± 0.0037. The figure for CATCGAGTTC is 1.05 ± 0.025; for CATCGCATTT it is 2.32 ± 0.91; for CATCGGGGTT it is 1.01 ± 0.002. Under CATCGTTGGT stands 0.999 ± 0.0029; under CATCTAGCAC, 2.63 ± 0.42; under CATCTGCGTT, 1.58 ± 0.11. For the sequence CATGAATCTA, the switch fluorescence ratio stood at 0.98017 ± 0.00042. For CATGAATTCA, the switch fluorescence ratio was 1.04 ± 0.033. As to CATGAATTGT, the switch fluorescence ratio was determined as 0.974 ± 0.019. The figure for CATGAGTTGT is 1 ± 0.025; for CATGATTCA it is 0.998 ± 0.041; for CATGATTTAT it is 1 ± 0.054. In the case of CATGCATGTT, the switch fluorescence ratio was determined as 1.01 ± 0.029. The figure for CATGCCAGAA is 0.981 ± 0.015. Under CATGCCTTGT stands 1.009 ± 0.0059; under CATGCGGATG, 1.001 ± 0.0056. Turning to CATGCGGCCG, the switch fluorescence ratio came to 0.992 ± 0.02.

On to CATGCTTCAT, for which the switch fluorescence ratio is 0.988 ± 0.017. The figure for CATGGAAGGG is 0.9699 ± 0.0068; for CATGGAATAG it is 1.07 ± 0.011. Consider CATGGAGAGG, for which the switch fluorescence ratio came to 1.02 ± 0.0086. Under CATGGATTAA stands 1 ± 0.011. The figure for CATGGCAACG is 0.993 ± 0.038. The figure for CATGGGAAAT is 1.008 ± 0.005.

For the sequence CATGGGCAGC, the switch fluorescence ratio worked out at 0.997 ± 0.016. Take CATGGGCCGT: the switch fluorescence ratio was found to be 1.02 ± 0.035.

As to CATGGGGCTA, the switch fluorescence ratio was determined as 1.02 ± 0.031. Under CATGGGGTAA stands 0.99 ± 0.014. The figure for CATGGGGTGG is 0.9671 ± 0.0014; for CATGGGGTGT it is 1.01 ± 0.013. Turning to CATGGGTGGG, the switch fluorescence ratio stood at 0.994 ± 0.028.

On to CATGGTATTT, for which the switch fluorescence ratio was found to be 0.9797 ± 0.0095. The figure for CATGGTTTTC is 0.962 ± 0.04; for CATGTAAGGA it is 0.985 ± 0.015. As for CATGTAAGTT, the switch fluorescence ratio is 0.986 ± 0.018. Regarding CATGTAGCGT, the switch fluorescence ratio is 1 ± 0.027. Under CATGTATAGG stands 0.987 ± 0.032; under CATGTATGT, 1.07 ± 0.03; under CATGTCAAGA, 1.01 ± 0.036.

CATGTGAAGC: the switch fluorescence ratio worked out at 1.014 ± 0.0072. In the case of CATGTGAAGG, the switch fluorescence ratio worked out at 0.966 ± 0.037.

Regarding CATGTGGACG, the switch fluorescence ratio was found to be 1.1 ± 0.02.

As to CATGTTAGGG, the switch fluorescence ratio was 1.01 ± 0.033. The figure for CATGTTGAGC is 0.9959 ± 0.0081.

Consider CATGTTTTGT, for which the switch fluorescence ratio was determined as 1.02 ± 0.017.

In the case of CATGTTTTTC, the switch fluorescence ratio is 0.982 ± 0.033. For the sequence CATTAAATTT, the switch fluorescence ratio stood at 1.02 ± 0.011. Under CATTAAGGAG stands 1.06 ± 0.092; under CATTACAGCC, 1.09 ± 0.028; under CATTACTTTT, 1.01 ± 0.014.

CATTAGCGCA: the switch fluorescence ratio came to 1.047 ± 0.0084. In the case of CATTAGTGGG, the switch fluorescence ratio turned out to be 0.988 ± 0.011. Turning to CATTATGTGA, the switch fluorescence ratio was found to be 0.987 ± 0.051.

On to CATTATTATG, for which the switch fluorescence ratio was determined as 1.03 ± 0.036. For the sequence CATTATTTCA, the switch fluorescence ratio came to 0.997 ± 0.04. Consider CATTCGTCGG, for which the switch fluorescence ratio came to 1.044 ± 0.0031. Turning to CATTGAATAC, the switch fluorescence ratio came out at 1.36 ± 0.061. The figure for CATTGAGTGC is 1.034 ± 0.0017; for CATTGATATG it is 0.9912 ± 0.0091; for CATTGCGAGG it is 1.02 ± 0.039. The figure for CATTGCTTGG is 1.039 ± 0.0012; for CATTGGAGGA it is 1.018 ± 0.0011. Under CATTGGAGTC stands 0.998 ± 0.043; under CATTGGCGTA, 1.02 ± 0.023. In the case of CATTGGTGTG, the switch fluorescence ratio came to 0.985 ± 0.047.

Take CATTGTGGTA: the switch fluorescence ratio worked out at 1.014 ± 0.0033.

As for CATTGTTGTT, the switch fluorescence ratio turned out to be 1.01 ± 0.0098.

CATTGTTTGA: the switch fluorescence ratio turned out to be 1.03 ± 0.021.

As to CATTTACACT, the switch fluorescence ratio is 1.05 ± 0.059.

With CATTTAGGAT, the switch fluorescence ratio came out at 0.985 ± 0.018. The figure for CATTTAGGCT is 0.9997 ± 0.0058; for CATTTCACGC it is 1.0996 ± 0.00041; for CATTTCGAAC it is 1.02 ± 0.027. The figure for CATTTGGCGG is 1 ± 0.013.

For the sequence CATTTGGGCC, the switch fluorescence ratio came out at 0.999 ± 0.017.

Take CATTTGTCCG: the switch fluorescence ratio amounted to 1.01 ± 0.071. On to CATTTGTTCT, for which the switch fluorescence ratio came to 1 ± 0.049. The figure for CATTTTATTT is 0.996 ± 0.032; for CATTTTGATG it is 0.966 ± 0.011; for CATTTTGTAT it is 0.998 ± 0.013. The figure for CATTTTTGGC is 1.03 ± 0.027; for CATTTTTTGG it is 0.998 ± 0.019; for CATTTTTTGT it is 1.027 ± 0.0052.

On to CATTTTTTTG, for which the switch fluorescence ratio was found to be 1 ± 0.017. Consider CCAAAGGGAT, for which the switch fluorescence ratio turned out to be 1.28 ± 0.38. Take CCAAAGGGGA: the switch fluorescence ratio stood at 1.15 ± 0.27. The figure for CCAAAGGTTT is 1.13 ± 0.22. For the sequence CCAAATGTCT, the switch fluorescence ratio amounted to 1.016 ± 0.0049. Under CCAAATTTAA stands 1.03 ± 0.01; under CCAACGGGGA, 1.1 ± 0.085; under CCAACGGTGC, 2.24 ± 0.095. The figure for CCAACTTGGA is 0.9849 ± 0.003; for CCAAGCGCCC it is 1.63 ± 0.23. Under CCAAGCGCCG stands 1.12 ± 0.13. As to CCAAGGACAC, the switch fluorescence ratio was 1.1498 ± 0.001. On to CCAAGGAGGG, for which the switch fluorescence ratio worked out at 0.999 ± 0.017.

On to CCAAGGAGTC, for which the switch fluorescence ratio came to 0.992 ± 0.024. Under CCAAGGATAA stands 1.047 ± 7.2e-05.
